According to PMC8786284, “Serine acetyltransferase from Neisseria gonorrhoeae; structural and biochemical basis of inhibition” (Biochemical Journal, 2022):

Tests used:
[1] = target: T1, Serine acetyltransferase (NgSAT) (Neisseria gonorrhoeae, UniProt Q5F6X0); assay: biochemical
T1 construct: gene NGO_1423; full-length, N-terminal His-tag, hexamer

[2] = target: the molecule itself; assay: SEC-SAXS; Superdex 200 5/150 in line with SAXS, co-flow; 50 mM Tris pH 8.0, 100 mM NaCl, without or with 50 µM L-cysteine; 25°C; mass from Porod volume and P(r) analysis
purified protein = substrate: N[C@@H](CO)C(=O)O; assay: purified protein; type: biochemical, Neisseria gonorrhoeae; settings: active site between adjacent monomers; Asp96, Asp161, His162, Arg196, His197
[3] = target: the molecule itself; assay: SEC; Enrich 650 analytical gel filtration column calibrated with Gel Filtration Standards (Bio-Rad); 50 mM Tris pH 8.0, 100 mM NaCl; oligomeric state of NgSAT
[4] = substrate: CC(=O)SCCNC(=O)CCNC(=O)[C@H](O)C(C)(C)COP(=O)(O)OP(=O)(O)OC[C@H]1O[C@@H](n2cnc3c(N)ncnc32)[C@H](O)[C@@H]1OP(=O)(O)O; assay: Michaelis-Menten kinetics (KM) with purified enzyme; type: biochemical, Neisseria gonorrhoeae

CC(C)(COP(=O)(O)OP(=O)(O)OC[C@H]1O[C@@H](n2cnc3c(N)ncnc32)[C@H](O)[C@@H]1OP(=O)(O)O)[C@@H](O)C(=O)NCCC(=O)NCCS [coenzyme A]
IC50 [1]: 573 ± 11 µM

B1: Neisseria gonorrhoeae serine acetyltransferase (enzyme, Neisseria gonorrhoeae MS11, UniProt Q5F6X0 1-272, looked up)
chain: MKKNHLNTTGFDLWHTIREETAAAAAAEPMLASFLHQTVLRHESLGSVLAYHLSSKLGSPIMDVRALFEIYQQALGSDTQISKCVEADLKAIYERDPACDEYSLPLLYFKGFHAIQAHRINHRLYLDGRKTLAYFLQNRMSEVFGVDIHPAARLGYGLMLDHATGFVAGETAVLGNNISILHGVTLGGSGKEGGDRHPKIGDGVMIGANASILGNIRIGSNAKIGAGSVVVSDVPPSITVVGVPAKPVARSLKTPSADMDQNIQFAEIDFMI
notes: 272-residue polypeptide (N-terminal domain 1-144, LbetaH domain 145-272) with an uncleaved 21-residue N-terminal histidine tag; monomer with tag 31.6 kDa; Hexamer (dimer of trimers); also called NgSAT; SAT; source: E. coli BL21 (DE3), purified (HisTrap IMAC, gel filtration); not shown: His-tag, N-terminal, kept
stoichiometry N [2]: 6.1 monomers per structure
Km (purified protein): 1210 ± 160 µM
kcat (purified protein): 1440 ± 41 s⁻¹
kcat/Km (purified protein): 1.19e+06 M⁻¹ s⁻¹
stoichiometry N [3]: 6
Km [4]: 149 ± 50 µM
kcat [4]: 1180 ± 111 s⁻¹
kcat/Km [4]: 7.89e+06 M⁻¹ s⁻¹
